Marks after values point to notes of the source that are not given here. Each block holds one molecule with its values, some of them ahead of it.
Key:
[1] = Retention of perhydrolase on hair detected by hydrolase activity; assay type: binding; details: for Activity in the first TWEEN®-20 wash / Activity retained on hair after 4 TWEEN® 20 washes / Activity unbound: hydrolase activity; for Activity in the first TWEEN®-20 wash: 1% TWEEN®-20; for Activity retained on hair after 4 TWEEN® 20 washes: 4 washes 1% TWEEN®-20 and 2 buffer washes; for Activity unbound: ~20 mg hair, binding 30 min; for 100% activity (hydrolase activity added to the tube): tube containing ~20 mg of hair, not subjected to washes
Method: For hair binding experiments brown hair tresses (International Hair Importers and Products, Glensdale N.Y.) were used. The hair was washed with 2% SLES, rinsed extensively with deionized water and air dried.
Around 20 mg of 1 cm brown hair fragments was added in a 1.8-mL microfuge tube. Hydrolase assay buffer (1.2 mL) as added to the hair followed by the addition of the perhydrolase enzymes to the solution. The enzymes were allowed to bind the hair for 30 min with gentle agitation (24 rpm) on an Adams Nutator (model 1105, Becton Dickinson, Franklin Lakes, N.J.). No enzyme controls, with hair and without hair, were included in the binding experiment to account for non-enzymatic hydrolysis of the pNPA hydrolase reagent. After the binding step, a 1.0-mL aliquot of the binding buffer was transferred to a new tube to quantitate the amount of unbound enzyme. Additional binding buffer was removed and the hair fragments were washed 4 times with 1 mL of 1% TWEEN®-20 in hydrolase buffer, followed by 2 washes with 1 mL each in hydrolase buffer. The hair fragments were then resuspended in 1 mL of hydrolase assay and the hydrolase activity that remained bound to the hair was measured. The C277S (“PAH”) variant of Thermotoga maritima perhydrolase (SEQ ID NO: 293) was used as a control for an un-targeted perhydrolase.

[2] = Single fiber tensile strength after one-step enzymatic application
Method: (§1) Hair samples were cut into pieces 4-inches in length. The denier number (liner mass density) of each hair fiber was measured by Textechno Vibromat Instrument (Textechno Herbert Stein GmbH & Co. KG; Germany). The hair fibers were tested according to ASTM D 3822-01 (“Tensile Properties of Single Textile Fibers”; ASTM International, West Conshohocken, Pa., 2001), on an Instron testing system (Instron Model 1122 Tester; Instron, Mass.) at about 70° F. (approximately 21° C.) and 65% relative humidity. The treated area of the hair sample was placed in the middle of the gauge and both ends were gripped on the test heads. Both fiber ends were attached on a piece of tape, respectively, for easy handling and gripping on the test heads. The test used 2-inch (5.1 cm) gauge length, […], and 1.2 inch/min (3 cm/min) pulling rate. The force-strain curve of the fiber was recorded during the test. The tenacity at maximum (gf/den) was calculated by dividing maximum force (gf) by denier number (den). Note that (gf/den)/11.33=Newtons/tex (N/tex).
The first method (referred to herein as the “one-step approach”) comprises combining different amounts of at least one CE-7 perhydrolase with triacetin (an example of a suitable ester substrate) and hydrogen peroxide to generate peracetic acid. Hair bundles were inserted into “one step approach” solutions for 15 min immediately after mixing the enzyme solution with triacetin solution (final concentration was about 100 mM) and H2O2 solution (final concentration was about 250 mM). The hair samples were rinsed with water and dried. The method was repeated for another 15 times (total application was 16 times). In one experiment, two perhydrolase enzymes were used, i.e., untargeted T. maritima variant C277S (“C277S”; “PAH”; SEQ ID NO: 293) and “C277S-HC263” (SEQ ID NO: 288). The concentration of peracetic acid in solution after 15 min was evaluated by HPLC.

[3] = Single fiber tensile strength and bleaching start after two-step enzymatic application
Method: as §1
In a two-step application, the hair strands are first treated with perhydrolase solutions to allow the enzyme to bind hair. The hair strands are then dried or rinsed with buffer and dried. The rinse step is intended to remove excess unbound enzyme from the hair. The hair strands are soaked in triacetin and H2O2 solutions. The application is repeated for multiple times.
One experiment was carried out with C277S-HC263 and untargeted T. maritima variant C277S using the following protocol: • 1. Enzyme solutions comprising 0.5 mg/mL enzyme in 50 mM phosphate buffer (pH 8) were made with or without 10 wt % urea. • 2. Seven (7) hair strands were soaked in 0.2 mL of an enzyme solution for 10 min and then dried under N2 without prior rinsing. • 3. The hair strands were then soaked in 0.2 mL of a pH 8 solution containing 100-mM triacetin and 250-mM H2O2 for 15 min, dried, then rinsed with DI water and then dried again. • 4. Steps 2-3 were repeated up to 15 times.
Another experiment was carried out with C277S-HC263 (SEQ ID NO: 288), CPAH-HC263 (SEQ ID NO: 294), CPAH-HC1010 (SEQ ID NO: 295) and untargeted C277S using the following protocol: • 1. Enzyme solutions comprising 1.0 mg/mL enzyme in 50 mM phosphate buffer (pH 6) were prepared. For solutions containing two enzymes, the concentration of each enzyme was approximately 0.5 mg/mL. • 2. Seven (7) hair strands were soaked in 0.2 mL of an enzyme solution for 10 min, rinsed with 50 mM phosphate buffer (pH 6), and then dried under N2. • 3. The dried hair strands were then soaked into 0.2 mL of 50 mM phosphate buffer solution (pH 8) comprising 100 mM triacetin and 250 mM H2O2 for 15 min, dried, then rinsed with DI water and then dried again. • 4.

[4] = Compatibility of perhydrolase with commercial moisturizer lotion, PAA indicator strip; assay type: physicochemical; details: ~0.1 mg/mL in lotion, room temperature (~21° C.)
Method: Lotion “A” was prepared by mixing 0.7667 g of SUAVE® Advanced Therapy Moisturizer (Lot#12148JU41, Unilever, CT) with 40 μL of perhydrolase fusion C277S-HC263 (10 mg/mL) in a 2-mL microfuge using an overhead mixer at 200 rpm for about 3 min. The concentration of C277S-HC263 (SEQ ID NO: 288) was about 0.1 mg/mL in lotion A.
Two control samples, i.e., A-control1 and A-control2, were prepared by replacing perhydrolase (C277S-HC263; SEQ ID NO: 288) with same volume of DI water and 50 mM phosphate buffer (pH 8), respectively.
Solution “B” was made by combining 44 μl of triacetin, 899 μL of 50 mM, pH 8, phosphate buffer, and 57 μL of H2O2 (30 wt %). Solution B was freshly made every time just before running the PAA indicator strip test.
After a predetermined time, 50 μl of lotion “A” and 50 μl of solution “B” were mixed gently for about 1 min. PAA indicator strips were used to test for the presence of PAA in the mixture as described in Example 10.

[5] = two-step with buffer rinse, 1.0 mg/mL enzyme pH 6, 100 mM triacetin, 250 mM H2O2, up to 13 repeats
[6] = two-step without rinse, 0.5 mg/mL enzyme pH 8, urea 0 wt %
[7] = two-step without rinse, 0.5 mg/mL enzyme pH 8, urea 0 wt %, 100 mM triacetin, 250 mM H2O2
[8] = two-step without rinse, 0.5 mg/mL enzyme pH 8, urea 10 wt %, 100 mM triacetin, 250 mM H2O2

Activity in the first TWEEN®-20 wash [1]: 5%
Activity retained on hair after 4 TWEEN® 20 washes [1]: 1%
Activity unbound [1]: 103%
B1: C277S: non-targeted C277S variant of the Thermotoga maritima perhydrolase, un-targeted control (protein, listed as Thermotoga maritima)
chain: MAFFDLPLEELKKYRPERYEEKDFDEFWEETLAESEKFPLDPVFERMESHLKTVEAYDVTFSGYRGQRIKGWLLVPKLEEEKLPCVVQYIGYNGGRGFPHDWLFWPSMGYICFVMDTRGQGSGWLKGDTPDYPEGPVDPQYPGFMTRGILDPRTYYYRRVFTDAVRAVEAAASFPQVDQERIVIAGGSQGGGIALAVSALSKKAKALLCDVPFLCHFRRAVQLVDTHPYAEITNFLKTHRDKEEIVFRTLSYFDGVNFAARAKIPALFSVGLMDNISPPSTVFAAYNYYAGPKEIRIYPYNNHEGGGSFQAVEQVKFLKKLFEKG
100% activity (hydrolase activity added to the tube) [1]: 148 µmol/min
Ten. @ Max ([2]; 0.05 mg/mL enzyme, urea 10 wt %, 15 min × 16): 0.3 gf/den
Ten. @ Max ([2]; 0.25 mg/mL enzyme, urea 10 wt %, 15 min × 16, average of less than 3 strands): 0.6^# gf/den
Ten. @ Max ([2]; 0.5 mg/mL enzyme, urea 10 wt %, 15 min × 16): 0.6 gf/den
Tenacity @ max [3, 5]: 1.7 gf/den
Bleaching Start [3, 6]: 13th
Tenacity @ max [3, 7]: 0.7 gf/den
Bleaching Start ([3]; two-step without rinse, 0.5 mg/mL enzyme pH 8, urea 10 wt %): 12th
Tenacity @ max [3, 8]: 0.6 gf/den

Activity in the first TWEEN®-20 wash [1]: 9%
Activity retained on hair after 4 TWEEN® 20 washes [1]: 54%
Activity unbound [1]: 52%
B2: C277S-HC263: C277S variant of Thermotoga maritima perhydrolase fused via a flexible linker to hair-binding domain HC263 (protein)
chain: MAFFDLPLEELKKYRPERYEEKDFDEFWEETLAESEKFPLDPVFERMESHLKTVEAYDVTFSGYRGQRIKGWLLVPKLEEEKLPCVVQYIGYNGGRGFPHDWLFWPSMGYICFVMDTRGQGSGWLKGDTPDYPEGPVDPQYPGFMTRGILDPRTYYYRRVFTDAVRAVEAAASFPQVDQERIVIAGGSQGGGIALAVSALSKKAKALLCDVPFLCHFRRAVQLVDTHPYAEITNFLKTHRDKEEIVFRTLSYFDGVNFAARAKIPALFSVGLMDNISPPSTVFAAYNYYAGPKEIRIYPYNNHEGGGSFQAVEQVKFLKKLFEKGGPGSGGAGSPGSAGGPGSPSAQSQLPDKHSGLHERAPQRYGPEPEPEPEPIPEPPKEAPVVIEKPKPKPKPKPKPPAHDHKNQKETHQRHAAGSGGGGSPHHHHHH
100% activity (hydrolase activity added to the tube) [1]: 53 µmol/min
Ten. @ Max ([2]; 0.05 mg/mL enzyme, urea 0 wt %, 15 min × 16): 1.0 gf/den
Ten. @ Max ([2]; 0.25 mg/mL enzyme, urea 0 wt %, 15 min × 16, average of less than 3 strands): 0.4^# gf/den
Ten. @ Max ([2]; 0.5 mg/mL enzyme, urea 0 wt %, 15 min × 16): 0.7 gf/den
Tenacity @ max [3, 5]: 1.7 gf/den
Bleaching Start [3, 6]: 15th
Tenacity @ max [3, 7]: 1.2 gf/den
Tenacity @ max [3, 8]: 1.7 gf/den
time perhydrolase activity retained in SUAVE® moisturizer [4]: at least 30 days
